Source: publication PMC10397247
Each block holds one binder with its values, some of them ahead of it.

Columns and labels:
Assay in all cases: two-hybrid library CCNG1;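 further: natural log of median RNA to DNA barcode read ratio; higher means stronger binding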
4H570-bN = target: T1, 4H570-bN
T1 chain: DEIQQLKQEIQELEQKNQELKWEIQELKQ

4H619-bN = target: T2, 4H619-bN
T2 chain: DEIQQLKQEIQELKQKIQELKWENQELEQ

4H3817-bN = target: T3, 4H3817-bN
T3 chain: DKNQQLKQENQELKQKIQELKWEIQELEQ

4H3162-bN = target: T4, 4H3162-bN
T4 chain: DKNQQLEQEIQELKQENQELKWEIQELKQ

P3bH1 = target: T5, P3bH1
T5 chain: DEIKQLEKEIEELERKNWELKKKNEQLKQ

4H906-bN = target: T6, 4H906-bN
T6 chain: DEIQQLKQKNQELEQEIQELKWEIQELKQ

4H3858-bN = target: T7, 4H3858-bN
T7 chain: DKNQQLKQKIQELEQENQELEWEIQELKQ

4H3638-bN = target: T8, 4H3638-bN
T8 chain: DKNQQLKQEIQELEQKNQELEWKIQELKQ

4H3172-bN = target: T9, 4H3172-bN
T9 chain: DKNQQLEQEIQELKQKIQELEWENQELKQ

4H3277-bN = target: T10, 4H3277-bN
T10 chain: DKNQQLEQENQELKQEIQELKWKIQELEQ

4H1985-bN = target: T11, 4H1985-bN
T11 chain: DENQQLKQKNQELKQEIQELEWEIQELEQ

4H3974-bN = target: T12, 4H3974-bN
T12 chain: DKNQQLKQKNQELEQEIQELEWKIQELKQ

4H3414-bN = target: T13, 4H3414-bN
T13 chain: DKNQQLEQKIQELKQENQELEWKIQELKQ

4H3613-bN = target: T14, 4H3613-bN
T14 chain: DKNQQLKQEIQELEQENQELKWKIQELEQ

4H850-bN = target: T15, 4H850-bN
T15 chain: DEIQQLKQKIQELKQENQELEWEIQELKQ

4H3926-bN = target: T16, 4H3926-bN
T16 chain: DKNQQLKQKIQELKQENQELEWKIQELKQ

4H584-bN = target: T17, 4H584-bN
T17 chain: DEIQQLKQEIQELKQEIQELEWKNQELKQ

4H3497-bN = target: T18, 4H3497-bN
T18 chain: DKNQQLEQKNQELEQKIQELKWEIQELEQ

4H3628-bN = target: T19, 4H3628-bN
T19 chain: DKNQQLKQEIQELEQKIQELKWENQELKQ

4H3462-bN = target: T20, 4H3462-bN
T20 chain: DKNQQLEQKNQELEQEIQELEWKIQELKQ

4H3175-bN = target: T21, 4H3175-bN
T21 chain: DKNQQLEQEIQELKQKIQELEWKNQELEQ

4H626-bN = target: T22, 4H626-bN
T22 chain: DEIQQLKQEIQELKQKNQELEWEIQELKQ

4H591-bN = target: T23, 4H591-bN
T23 chain: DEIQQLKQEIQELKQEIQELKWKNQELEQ

4H1899-bN = target: T24, 4H1899-bN
T24 chain: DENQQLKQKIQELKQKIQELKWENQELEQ

4H3129-bN = target: T25, 4H3129-bN
T25 chain: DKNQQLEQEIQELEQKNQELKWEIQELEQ

4H3631-bN = target: T26, 4H3631-bN
T26 chain: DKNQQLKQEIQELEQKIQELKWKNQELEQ

4H3926-bA = target: T27, 4H3926-bA
T27 chain: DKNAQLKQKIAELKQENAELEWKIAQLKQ

4H1804-bN = target: T28, 4H1804-bN
T28 chain: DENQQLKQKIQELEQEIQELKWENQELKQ

4H3298-bN = target: T29, 4H3298-bN
T29 chain: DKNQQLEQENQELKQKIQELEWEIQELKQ

4H235-bN = target: T30, 4H235-bN
T30 chain: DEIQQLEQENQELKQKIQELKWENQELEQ

4H1710-bN = target: T31, 4H1710-bN
T31 chain: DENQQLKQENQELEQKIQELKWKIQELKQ

P5bHq = target: T32, P5bHq
T32 chain: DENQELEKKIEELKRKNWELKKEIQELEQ

P9bHq = target: T33, P9bHq
T33 chain: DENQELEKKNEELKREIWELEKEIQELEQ

P7bHq = target: T34, P7bHq
T34 chain: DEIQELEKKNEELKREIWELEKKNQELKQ

P6bHq = target: T35, P6bHq
T35 chain: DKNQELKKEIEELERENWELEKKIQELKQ

P8bHq = target: T36, P8bHq
T36 chain: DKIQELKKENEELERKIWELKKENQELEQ

P4bHq = target: T37, P4bHq
T37 chain: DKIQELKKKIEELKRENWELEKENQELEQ

interaction score (4H570-bN): 0.578
interaction score (4H619-bN): 0.707
interaction score (4H3817-bN): 1.23
interaction score (4H3162-bN): 0.233
interaction score (P3bH1): -2.08
interaction score (4H906-bN): 0.452
interaction score (4H3858-bN): -0.718
interaction score (4H3638-bN): -0.0052
interaction score (4H3172-bN): -0.194
interaction score (4H3277-bN): 0.0226
interaction score (4H1985-bN): 1.36
interaction score (4H3974-bN): 0.85
interaction score (4H3414-bN): -0.297
interaction score (4H3613-bN): -0.41
interaction score (4H850-bN): 0.177
interaction score (4H3926-bN): -0.569
interaction score (4H584-bN): 0.273
interaction score (4H3497-bN): 0.701
interaction score (4H3628-bN): 1.45
interaction score (4H3462-bN): -0.312
interaction score (4H3175-bN): -0.28
interaction score (4H626-bN): 0.722
interaction score (4H591-bN): -0.724
interaction score (4H1899-bN): 0.0366
interaction score (4H3129-bN): -0.785
interaction score (4H3631-bN): 0.993
interaction score (4H3926-bA): -0.849
interaction score (4H1804-bN): -0.254
interaction score (4H3298-bN): 0.498
interaction score (4H235-bN): -2.91
interaction score (4H1710-bN): 0.191
Binder: DENQQLKQENQELEQKIQELKWKIQELKQ [4H1710-bN]

interaction score (P5bHq): 1.1
interaction score (P9bHq): -0.595
interaction score (P7bHq): 0.482
interaction score (P6bHq): -0.227
interaction score (P8bHq): 0.414
interaction score (P4bHq): 1.75
Binder: DEIQELEKEIEELERKNWELKKKNQELKQ [P3bHq]

interaction score (P5bHq): -1.27
interaction score (P9bHq): -0.875
interaction score (P7bHq): -1.11
interaction score (P6bHq): -0.00957
interaction score (P8bHq): -0.273
interaction score (P4bHq): -0.613
Binder: DKIQELKKKIEELKRENWELEKENQELEQ [P4bHq]
